Patent US20240101687A1 (ABL BIO, published 2024)
“And” between values parts separate entries of the source, which are not always exact repeats. Equal entries are not always repeated.

What was measured:
[1] = molecular target: T1, human IGF1R extracellular domain, His-tagged (human, UniProt P08069 31-932); assay: ELISA on IGF1R protein, first experiment
T1 construct: Bought (R&D Systems 391-GR or Sino Biological 10164-H08H); also called recombinant IGF1R; ECD of IGF1R

[2] = molecular target: T1, human IGF1R extracellular domain, …; assay: ELISA on IGF1R protein, second experiment
[3] = molecular target: T1, human IGF1R extracellular domain, …; assay: ELISA on IGF1R protein, third experiment
human gamma-synuclein = molecular target: T2, human gamma-synuclein (human, UniProt O76070 1-127, limits assumed); assay: ELISA, human gamma-synuclein coated at 100 ng/ml
T2 construct: bought
T2 sequence (O76070 whole entry): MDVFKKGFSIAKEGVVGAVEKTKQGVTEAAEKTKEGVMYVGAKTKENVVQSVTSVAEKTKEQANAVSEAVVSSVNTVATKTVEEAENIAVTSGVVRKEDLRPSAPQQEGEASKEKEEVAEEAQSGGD
Description: (§1) For the positive control, RP-bound goat anti-rabbit was used as a detection antibody.

Tau protein aggregates = molecular target: T3, Tau protein aggregates (UniProt P10636-8 1-441, limits assumed); assay: dot blot
T3 construct: aggregates prepared by Prof; Seung-jae Lee; also called tau-derived aggregates
T3 sequence (P10636 other isoform, or with tags, fused parts or gaps limits assumed): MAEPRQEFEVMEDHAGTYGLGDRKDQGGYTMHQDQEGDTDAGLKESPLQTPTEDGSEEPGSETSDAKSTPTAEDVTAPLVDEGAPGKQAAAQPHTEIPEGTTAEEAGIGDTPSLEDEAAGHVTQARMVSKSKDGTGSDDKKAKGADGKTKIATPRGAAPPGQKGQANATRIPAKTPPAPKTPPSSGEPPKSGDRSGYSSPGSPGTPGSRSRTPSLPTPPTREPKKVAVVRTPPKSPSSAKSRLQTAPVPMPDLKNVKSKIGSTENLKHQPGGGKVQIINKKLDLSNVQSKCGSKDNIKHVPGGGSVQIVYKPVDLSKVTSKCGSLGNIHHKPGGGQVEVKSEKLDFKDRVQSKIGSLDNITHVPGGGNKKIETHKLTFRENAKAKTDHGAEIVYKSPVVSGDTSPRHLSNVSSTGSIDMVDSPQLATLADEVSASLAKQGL

Aβ42 (Monomer) = molecular target: T4, Aβ42 (Monomer) (human, UniProt P05067); assay: dot blot, monomer and fibril of each protein spotted in rising amounts, antibody as probe
T4 construct: recombinant, monomer (not aggregated); m20 is the aggregated form; also called amyloid beta1-42 monomer
Protocol: (§2) The specific binding ability of the antibodies to the alpha-synuclein aggregate was analyzed by reacting with a blot.

[4] = molecular target: T5, amyloid beta1-42 aggregates (UniProt P05067 672-713); assay: as above
T5 construct: domain: amyloid beta1-42; aggregates prepared by Prof; Seung-jae Lee; also called amyloid beta1-42-derived aggregates
Protocol: as §2

[5] = molecular target: T6, human alpha-synuclein aggregates (fibrils) (human, UniProt P37840 1-140); assay: SPR (BIAcore), antibody captured on Protein A chip, alpha-Syn fibril as analyte, 1:1 binding fit, 25 C
human beta-synuclein = molecular target: T7, human beta-synuclein (human, UniProt Q16143 1-134, limits assumed); assay: ELISA, human beta-synuclein coated at 100 ng/ml
T7 construct: bought
T7 sequence (Q16143 whole entry): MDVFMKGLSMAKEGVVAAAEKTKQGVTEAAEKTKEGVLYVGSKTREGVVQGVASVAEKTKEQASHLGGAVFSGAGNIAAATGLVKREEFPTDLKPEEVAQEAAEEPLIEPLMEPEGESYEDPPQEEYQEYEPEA
Description: as §1

[6] = molecular target: human alpha-synuclein monomer (human, UniProt P37840 1-140); assay: SPR (BIAcore), antibody captured on Protein A chip, alpha-Syn monomer as analyte, 1:1 binding fit to a flat sensorgram, 25 C
[7] = molecular target: T6, human alpha-synuclein aggregates …; assay: Octet (BLI), fibrils; table of results
Protocol: The target concentrations were 20 μg/ml for the monomer and 0.4 μg/ml for the fibril. The kinetics concentration was diluted sequentially two times from 50 nM for monomers and from 100 nM for fibrils, to give 7 points in total, respectively. Association/dissociation time was 5 min/20 min for monomer and 5 min/25 min for fibril. Biosensor was ARG2 and fitting was performed using 1:1 fitting model.

[8] = molecular target: T6, human alpha-synuclein aggregates …; assay: sandwich ELISA, antibody coated at 1 ug/ml, alpha-synuclein fibril aggregates titrated
Protocol: ELISA analysis was performed to quantitatively analyze the binding affinity of the antibody of the present invention to the antigen. […] After washing with PBS, streptavidin conjugated with HRP and secondary antibody conjugate with biotin was treated and then reacted with TMB as a substrate.

[9] = molecular target: T6, human alpha-synuclein aggregates …; assay: SPR (BIAcore), fibrils; table of results
Protocol: (§3) The running buffer, analyte dilution, and the sample dilution buffer were HBS-EP. […] For the capture, the monomer was for RU of 800 (theoretical), and a fibril was for RU of 100 (theoretical). The capture phase was performed at contact time of 60 seconds, a flow rate of 30 μl/min, and a stabilization period of 180 seconds. The association phase was performed at the association time of 120 seconds and the flow rate was 30 μl/min. The dissociation phase was performed at the dissociation time of 360 seconds and the flow rate of 30 l/min. The regeneration phase was performed twice time at the regeneration time of 240 seconds (primary) and 60 seconds (secondary) and a flow rate of 30 μl/min. The fitting was carried out suing 1:1 binding model, and the evaluation software was BIACore T200 Evaluation software (GE healthcare).

[10] = molecular target: T6, human alpha-synuclein aggregates …; assay: SPR (BIAcore), antibody captured on Protein A chip, alpha-synuclein fibril (sample aSyn180330) as analyte, 1:1 binding fit, 25 C
Protocol: as §3

[11] = molecular target: T6, human alpha-synuclein aggregates …; assay: sandwich ELISA, antibody coated in a dilution series, synuclein fibril aggregates at 2000 ng/ml; C of the 4-P fit, which paragraph 260 calls EC50
Protocol: Specifically, each antibody was diluted at 1/10 ratio of concentrations 0.04 to 400 nM and was coated on a 96-well plate, and then each well was treated with synuclein fibril aggregates were treated at 2000 ng/ml. After washing with 1×PBS, streptavidin conjugated with HRP and secondary antibody conjugate with biotin was treated and then reacted with TMB as a substrate. The absorbance was measured.

[12] = molecular target: T6, human alpha-synuclein aggregates …; assay: BIAcore as in Example 4-3, α-syn aggregates
Protocol: as §3

B1: 1564 clone (anti-IGF1R antibody, format not stated) (antibody, V domains shown)
VH: EVQLLESGGGLVQPGGSLRLSCAASGFTFSSYDMSWVRQAPGKGLEWVSAISYDNGNTYYADSVKGRFTISRDNSKNTLYLQMNSLRAEDTAVYYCAKGVLTTLMNWFDYWGQGTLVTVSS
VL: QSVLTQPPSASGTPGQRVTISCTGSSSNIGSNDVSWYQQLPGTAPKLLIYANSNRPSGVPDRFSGSKSGTSASLAISGLRSEDEADYYCGAWDDSLNGYVFGGGTKLTVL
EC50 [1]: 2.15 nM
Saturation value [1]: 1.1
EC50 [2]: 2.66 nM
Saturation value [2]: 0.977
EC50 [3]: 6.87 nM

B2: 1564-VH(N54D) (antibody, V domains shown)
VH: EVQLLESGGGLVQPGGSLRLSCAASGFTFSSYDMSWVRQAPGKGLEWVSAISYDDGNTYYADSVKGRFTISRDNSKNTLYLQMNSLRAEDTAVYYCAKGVLTTLMNWFDYWGQGTLVTVSS
VL: QSVLTQPPSASGTPGQRVTISCTGSSSNIGSNDVSWYQQLPGTAPKLLIYANSNRPSGVPDRFSGSKSGTSASLAISGLRSEDEADYYCGAWDDSLNGYVFGGGTKLTVL
EC50 [2]: 2.89 nM
Saturation value [2]: 0.933

B3: 1564-VL(N95aH) (antibody, V domains shown)
VH: EVQLLESGGGLVQPGGSLRLSCAASGFTFSSYDMSWVRQAPGKGLEWVSAISYDNGNTYYADSVKGRFTISRDNSKNTLYLQMNSLRAEDTAVYYCAKGVLTTLMNWFDYWGQGTLVTVSS
VL: QSVLTQPPSASGTPGQRVTISCTGSSSNIGSNDVSWYQQLPGTAPKLLIYANSNRPSGVSDRFSGSKSGTSASLAISGLRSEDEADYYCGAWDDSLHGYVFGGGTKLTVL
EC50 [1]: 2.63 nM
Saturation value [1]: 1.08

B4: 1564-VH(N54Q) (antibody, V domains shown)
VH: EVQLLESGGGLVQPGGSLRLSCAASGFTFSSYDMSWVRQAPGKGLEWVSAISYDQGNTYYADSVKGRFTISRDNSKNTLYLQMNSLRAEDTAVYYCAKGVLTTLMNWFDYWGQGTLVTVSS
VL: QSVLTQPPSASGTPGQRVTISCTGSSSNIGSNDVSWYQQLPGTAPKLLIYANSNRPSGVPDRFSGSKSGTSASLAISGLRSEDEADYYCGAWDDSLNGYVFGGGTKLTVL
EC50 [2]: 2.2 nM
Saturation value [2]: 0.885

B5: 1564-VL(N51D) (antibody, V domains shown)
VH: EVQLLESGGGLVQPGGSLRLSCAASGFTFSSYDMSWVRQAPGKGLEWVSAISYDNGNTYYADSVKGRFTISRDNSKNTLYLQMNSLRAEDTAVYYCAKGVLTTLMNWFDYWGQGTLVTVSS
VL: QSVLTQPPSASGTPGQRVTISCTGSSSNIGSNDVSWYQQLPGTAPKLLIYADSNRPSGVSDRFSGSKSGTSASLAISGLRSEDEADYYCGAWDDSLNGYVFGGGTKLTVL
EC50 [3]: 7.35 nM

B6: 1564-VL(N95aK) (antibody, V domains shown)
VH: EVQLLESGGGLVQPGGSLRLSCAASGFTFSSYDMSWVRQAPGKGLEWVSAISYDNGNTYYADSVKGRFTISRDNSKNTLYLQMNSLRAEDTAVYYCAKGVLTTLMNWFDYWGQGTLVTVSS
VL: QSVLTQPPSASGTPGQRVTISCTGSSSNIGSNDVSWYQQLPGTAPKLLIYANSNRPSGVSDRFSGSKSGTSASLAISGLRSEDEADYYCGAWDDSLKGYVFGGGTKLTVL
EC50 [1]: 2.07 nM
Saturation value [1]: 1.18

B7: 1564-VL(N95aD) (antibody, V domains shown)
VH: EVQLLESGGGLVQPGGSLRLSCAASGFTFSSYDMSWVRQAPGKGLEWVSAISYDNGNTYYADSVKGRFTISRDNSKNTLYLQMNSLRAEDTAVYYCAKGVLTTLMNWFDYWGQGTLVTVSS
VL: QSVLTQPPSASGTPGQRVTISCTGSSSNIGSNDVSWYQQLPGTAPKLLIYANSNRPSGVSDRFSGSKSGTSASLAISGLRSEDEADYYCGAWDDSLDGYVFGGGTKLTVL
EC50 [2]: 2.07 nM
Saturation value [2]: 0.896

B8: chimeric 9B11 antibody (antibody, V domains shown)
VH: EVQLQESGGGLVQPKGSLKLSCAASGFTFNTYAMNWVRQAPGKGLEWVARIRSKSNNYATYYADSVKDRFTISRDDSQSMLYLQMNNLKTEDTAMYYCVRQDFDYWGQGTTLTVSS
VL: DIVMTQSPLSLPVSLGDQASISCRSSQSLVHSNGNTYLHWYLQKPGQSPKLLIYKVSNRFSGVPDRFSGSGSGTDFTLKISRVEAEDLGVYFCSQSTHVPLTFGAGTKLEQK
notes: also called ch9B11; 9B11 (chimeric)
binding result (human gamma-synuclein): no binding
binding result (Tau protein aggregates): no binding
binding result (Aβ42 (Monomer)): no binding
binding result [4]: no binding
koff [5]: 4.39e-05 s⁻¹
kon [5]: 629000 M⁻¹ s⁻¹
binding result (human beta-synuclein): no binding
koff [6]: 0.000571 s⁻¹
kon [6]: 2210 M⁻¹ s⁻¹

B9: 9B11 (mouse monoclonal anti-alpha-synuclein antibody) (antibody, V domains shown)
VH: EVQLQESGGGLVQPKGSLKLSCAASGFTFNTYAMNWVRQAPGKGLEWVARIRSKSNNYATYYADSVKDRFTISRDDSQSMLYLQMNNLKTEDTAMYYCVRQDFDYWGQGTTLTVSS
VL: DIVMTQSPLSLPVSLGDQASISCRSSQSLVHSNGNTYLHWYLQKPGQSPKLLIYKVSNRFSGVPDRFSGSGSGTDFTLKISRVEAEDLGVYFCSQSTHVPLTFGAGTKLEQK
Kd [7]: 0.018 nM
EC50 [8]: 0.185 µg/mL and 1.23 nM
Kd [9]: 0.904 nM

B10: chimeric 3A9 antibody (antibody, V domains shown)
VH: EVQLQESGGGLVKPGGSLKLSCAASGFTFSSYAMSWVRQTPEKRLEWVATISNGGGYTYYPDSVKGRFTISRDNAKNTLYLQMSSLRSEDTAMYYCARHITTVRPTKYFDYWGQGTTLTVSS
VL: DIVMTQSPKFMSTSVGDRVSITCKASQNVGTTVAWYQQKPGQSPKLLIYSASNRYTGVPDRFTGSGSGTDFTLTISNMQSEDLADYFCQQYSNYPLTFGAGTKLELR
notes: also called Ch 3A9; ch3A9
binding result (human gamma-synuclein): no binding
binding result (Tau protein aggregates): no binding
binding result (Aβ42 (Monomer)): no binding
binding result [4]: no binding
koff [5]: 7.42e-05 s⁻¹
kon [5]: 631000 M⁻¹ s⁻¹
binding result (human beta-synuclein): no binding
koff [6]: 0.00186 s⁻¹

B11: 3A9 (mouse monoclonal anti-alpha-synuclein antibody) (antibody, mouse IgG2b, V domains shown)
VH: EVQLQESGGGLVKPGGSLKLSCAASGFTFSSYAMSWVRQTPEKRLEWVATISNGGGYTYYPDSVKGRFTISRDNAKNTLYLQMSSLRSEDTAMYYCARHITTVRPTKYFDYWGQGTTLTVSS
VL: DIVMTQSPKFMSTSVGDRVSITCKASQNVGTTVAWYQQKPGQSPKLLIYSASNRYTGVPDRFTGSGSGTDFTLTISNMQSEDLADYFCQQYSNYPLTFGAGTKLELR
Kd [7]: 0.13 nM
EC50 [8]: 0.319 µg/mL and 2.13 nM
Kd [9]: 1.32 nM

B12: 11F11 (mouse monoclonal anti-alpha-synuclein antibody) (antibody, mouse IgG2b, V domains shown)
VH: EVQLQESGGGLVQPGGSLRLSCATSGFTFSDFYMEWVRQPPGKRLEWIAASRNKANDYTTEYSASVKGRFIVSRDTSQSILYLQMNALRAEDTAIYYCARDAHGKPFAYWGQGTLVTVSA
VL: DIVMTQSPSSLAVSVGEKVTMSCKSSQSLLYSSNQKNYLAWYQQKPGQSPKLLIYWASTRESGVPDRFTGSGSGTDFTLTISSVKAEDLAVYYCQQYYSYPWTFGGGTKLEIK
Kd [7]: 0.16 nM
EC50 [8]: 0.327 µg/mL and 2.18 nM
Kd [9]: 2.87 nM

B13: hu11F11(ver.1) (antibody, human IgG1, kappa, V domains shown)
VH: EVQLVESGGGLVQPGGSLRLSCATSGFTFSDFYMEWVRQPPGKRLEWIAASRNKANDYTTEYSASVKGRFTISRDDSKSSLYLQMNSLRAEDTAIYYCARDAHGKPFAYWGQGTTVTVSS
VL: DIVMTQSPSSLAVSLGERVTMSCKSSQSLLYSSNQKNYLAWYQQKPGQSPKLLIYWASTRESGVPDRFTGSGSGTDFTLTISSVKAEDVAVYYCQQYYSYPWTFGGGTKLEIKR
notes: humanized IgG1; also called Hu11F11-VH-v1 + Hu11F11-VLv3 4c
koff [10]: 5.36e-05 s⁻¹
kon [10]: 845000 M⁻¹ s⁻¹
EC50 [11]: 11.5 nM

B14: hu11F11(ver.4) (antibody, human IgG1, kappa, V domains shown)
VH: EVQLVESGGGLVQPGGSLRLSCATSGFTFSDFYMEWVRQPPGKRLEWIAASRNKANDYTTEYSASVKGRFTVSRDTSKSSLYLQMNSLRAEDTAIYYCARDAHGKPFAYWGQGTTVTVSS
VL: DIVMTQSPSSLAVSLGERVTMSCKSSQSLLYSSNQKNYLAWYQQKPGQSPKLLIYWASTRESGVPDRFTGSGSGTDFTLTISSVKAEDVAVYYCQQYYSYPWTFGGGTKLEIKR
notes: humanized IgG1; also called Hu11F11-VH-v4 + Hu11F11-VLv3 4c
koff [10]: 0.000291 s⁻¹
kon [10]: 1.07e+06 M⁻¹ s⁻¹
Kd [12]: 0.0204 nM
EC50 [11]: 12.9 nM

B15: hu11F11(ver.3) (antibody, human IgG1, kappa, V domains shown)
VH: EVQLVESGGGLVQPGGSLRLSCATSGFTFSDFYMEWVRQPPGKRLEWIAASRNKANDYTTEYSASVKGRFTISRDTSKSSLYLQMNSLRAEDTAIYYCARDAHGKPFAYWGQGTTVTVSS
VL: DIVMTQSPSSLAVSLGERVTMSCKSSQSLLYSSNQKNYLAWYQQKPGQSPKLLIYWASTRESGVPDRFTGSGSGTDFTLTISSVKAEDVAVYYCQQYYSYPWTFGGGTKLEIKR
notes: humanized IgG1; also called Hu11F11-VH-v3 + Hu11F11-VLv3 4c
kon [10]: 1.07e+06 M⁻¹ s⁻¹
Kd [12]: 0.0316 nM
EC50 [11]: 13.4 nM
